According to patent publication US20170327600, “RNA-PROTEIN COMPLEX, AND RNA AND PROTEIN DELIVERY SYSTEM USING THE SAME” (KYOTO UNIVERSITY, published 2017):

Experiments:
L7Ae [1] = target: T1, L7Ae (UniProt O29494 O29494:1-119); assay: EMSA; 150 KCl (unit printed ml), 1.5 mM MgCl2, 20 mM HEPES-KOH pH 7.5; triangle also by HS-AFM; settings: tags: expressed from pET-28(+) (Novagen) in E. coli Rosetta; chain copies: 3 per LS-RNA; loop of double-stranded RNA with three K-turn motifs
Protocol: (§1) Subsequently, according to electrophoretic mobility shift assay (EMSA), the interaction of L7Ae with the LS-RNA was analyzed. After completion of electrophoresis using polyacrylamide gel, the polyacrylamide gel was stained with SYBR Green I and II (Lonza), and formation of an RNA-protein complex was then observed. As a result, it was confirmed that a triangular structure was formed by the interaction of the LS-RNA with L7Ae, as expected, in all of the LS-RNAs (FIG. 2).

L7Ae-Affibody (L7Ae-AFB) [2] = target: T2, L7Ae-Affibody (L7Ae-AFB) (UniProt O29494 O29494:1-119); assay: EMSA; settings: chain copies: 3 per LS-RNA; loop of double-stranded RNA with three K-turn motifs
T2 sequence (O29494 whole entry, one chain of several): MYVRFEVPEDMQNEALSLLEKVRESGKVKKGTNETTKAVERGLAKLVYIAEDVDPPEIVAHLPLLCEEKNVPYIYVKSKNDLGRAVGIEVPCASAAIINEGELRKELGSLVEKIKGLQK
Protocol: as §1
(§2) The function to recognize specific cancer cells was imparted to Tri-RNP. Specifically, a protein (L7Ae-AFB), in which the N-terminus of an affibody_{ZHER2:342} peptide (SEQ ID NOS: 25 and 26) was fused with the C-terminus of L7Ae via […] (SEQ ID NOS: 27 and 28), was prepared by transfecting a plasmid into Escherichia coli in accordance with Ohno, H., et al., as described above. This L7Ae-AFB was added to LS-RNA to construct RNP (Tri-AFB, FIG. 9A). When LS-26 was used as RNA (Tri-26-AFB), a triangular structure was found by HS-AFM, and it was also confirmed that a substance assumed as AFB was added to each vertex (FIG. 9B). Moreover, according to EMSA, it was confirmed that L7Ae-AFB binds to a K-turn motif, as with Tri-26 (FIG. 10).

L7Ae [3] = target: T1, L7Ae; assay: EMSA; triangle also by HS-AFM; settings: tags: expressed from pET-28(+) (Novagen) in E. coli Rosetta; chain copies: 3 per LS-RNA; loop of double-stranded RNA with three K-turn motifs
Protocol: as §1

L7Ae-Affibody (L7Ae-AFB) [4] = target: T2, L7Ae-Affibody (L7Ae-AFB); assay: EMSA; triangle also by HS-AFM; settings: chain copies: 3 per LS-RNA; loop of double-stranded RNA with three K-turn motifs
Protocol: as §1, §2

L7Ae [5] = target: T1, L7Ae; assay: HS-AFM, triangular structure with L7Ae; settings: tags: expressed from pET-28(+) (Novagen) in E. coli Rosetta; chain copies: 3 per LS-RNA; loop with three K-turn motifs and a GFP siRNA duplex at each side
Protocol: Subsequently, the Tri-RNPs were observed by […]. […] The cantilever was set at a resonance frequency of 400-1000 kHz and at a spring constant of 0.1-0.2 N/m. A probe was deposited on the cantilever by electron beam. The mica surface was coated with 0.1% APTES, and thereafter, a 50 nM sample that had been dissolved in an RNP-binding solvent and an AFM observation solvent (20 mM Tris-HCl (pH7.6) and 10 mM MgCl2) was left at rest on the mica. The image was analyzed using software such as Image J and WSxM.
Specifically, five RNAs were hybridized with S-26, L-26-1 (SEQ ID NO: 29), L-26-2 (SEQ ID NO: 30), L-26-3 (SEQ ID NO: 31), and antisense-GFP (SEQ ID NO: 32) in the same manner as described above, such that L-26 had siRNA for GFP at the three sides thereof, thereby producing LS-26-siGFP. Subsequently, LS-26-siGFP was mixed with L7Ae to produce Tri-26-siGFP having a triangular structure, and the structure of the Tri-26-siGFP was then confirmed by HS-AFM. […] As given above, a triangular structure (Tri-26-siGFP) having a structure containing three double strands having siRNA function could be constructed.

T1 sequence (O29494 whole entry, one chain of several): as above

Row | Binder | binding result (L7Ae [1]) | binding result (L7Ae-Affibody (L7Ae-AFB) [2]) | binding result (L7Ae [3]) | binding result (L7Ae-Affibody (L7Ae-AFB) [4]) | binding result (L7Ae [5])
1 | LS-15 (dsRNA) RNA 1: GGUGAAGGGCGUGAUGAGCGAGAAGUCCGGCUUCGGCGUGAUGAGCCCUGUGCCGGCCCUGGGCGUGAUGAGCAUUCCACC RNA 2: GGACUUCUCGCUCUGACCCUUCACCGGUGGAAUGCUCUGACCCAGGGCCGGCACAGGGCUCUGACCGAAGCC | binds | binds | – | – | –
2 | LS-48 (dsRNA) RNA 1: GGACGAGCUGUACACCAUGGUGACCGCCGCCGGGCGUGAUGAGCUCCAAGGACCCCAACGAGAAGCGCGAUCACAUGAUCUACUUCGGCUUCGGCGUGAUGAGCCCUGUGCUGCUGCCCGAUAACCACUACCUGCCAUCACCCACGGCCCUGGGCGUGAUGAGCAUUCCACCCAGAGCGC RNA 2: GGUGUACAGCUCGUCCGCGCUCUGGGUGGAAUGCUCUGACCCAGGGCCGUGGGUGAUGGCAGGUAGUGGUUAUCGGGCAGCAGCACAGGGCUCUGACCGAAGCCGAAGUAGAUCAUGUGAUCGCGCUUCUCGUUGGGGUCCUUGGAGCUCUGACCCGGCGGCGGUCACCAU | – | binds | binds | – | –
3 | LS-26 (dsRNA) RNA 1: GGCGCAAAGGCCUGUAAUCGGCGUGAUGAGCCAUGCGAGGAGGAAAUGAAGUCCAAUGGCGUGAUGAGCCUCUACGGGAAGAGCAUGCCCAUCCGGGCGUGAUGAGCGUAGCAA RNA 2: GGCCUUUGCGCCUUGCUACGCUCUGACCCGGAUGGGCAUGCUCUUCCCGUAGAGGCUCUGACCAUUGGACUUCAUUUCCUCCUCGCAUGGCUCUGACCGAUUACA | – | – | binds | binds | –
4 | LS-26-siGFP (dsRNA) RNA 1: GGCAUCAAGGUGAACUUCAAGAUCCGCAAAGGCCUGUAAUCGGCGUGAUGAGCCAUGCGAGGA RNA 2: GGCAUCAAGGUGAACUUCAAGAUCCGGAAAUGAAGUCCAAUGGCGUGAUGAGCCUCUACGGGA RNA 3: GGCAUCAAGGUGAACUUCAAGAUCCAGAGCAUGCCCAUCCGGGCGUGAUGAGCGUAGCAAGGC RNA 4: GGCCUUUGCGCCUUGCUACGCUCUGACCCGGAUGGGCAUGCUCUUCCCGUAGAGGCUCUGACCAUUGGACUUCAUUUCCUCCUCGCAUGGCUCUGACCGAUUACA RNA 5: GGAUCUUGAAGUUCACCUUGAUGCCAG | – | – | – | – | binds
